This experiment has as its target FZD1/2/4/5/7/8. The experiment can be described thus: cell-based or functional assay.

B1: Fab-Dia (bispecific antibody)
heavy: EVQLVESGGGLVQPGGSLRLSCAASGFNIHSSSIHWVRQAPGKGLEWVAATYSSFGSITYADSVKGRFTISADTSKNTAYLQMNSLRAEDTAVYYCARYHHPFGYALDYWGQGTLVTVSSASTKGPSVFPLAPSSKSTSGGTAALGCLVKDYFPEPVTVSWNSGALTSGVHTFPAVLQSSGLYSLSSVVTVPSSSLGTQTYICNVNHKPSNTKVDKKVEPKSCDKTHTGGSGGEVQLVESGGGLVQPGGSLRLSCAASGFTISYSSIHWVRQAPGKGLEWVASISPYYGYTYYADSVKGRFTISADTSKNTAYLQMNSLRAEDTAVYYCARSSYFPWFSAMDYWGQGTLVTVSSGGGGSDIQMTQSPSSLSASVGDRVTITCRASQSVSSAVAWYQQKPGKAPKLLIYSASSLYSGVPSRFSGSRSGTDFTLTISSLQPEDFATYYCQQYYWPITFGQGTKVEIK
light: DIQMTQSPSSLSASVGDRVTITCRASQSVSSAVAWYQQKPGKAPKLLIYSASSLYSGVPSRFSGSRSGTDFTLTISSLQPEDFATYYCQQGVYLFTFGQGTKVEIKRTVAAPSVFIFPPSDEQLKSGTASVVCLLNNFYPREAKVQWKVDNALQSGNSQESVTEQDSKDSTYSLSSTLTLSKADYEKHKVYACEVTHQGLSSPVTKSFNRGECGGGGSEVQLVESGGGLVQPGGSLRLSCAASGFTISSYYIHWVRQAPGKGLEWVASIYSSYGYTSYADSVKGRFTISADTSKNTAYLQMNSLRAEDTAVYYCARTVRGSKKPYFSGWAMDYWGQGTLVTVSSGGGGSDIQMTQSPSSLSASVGDRVTITCRASQSVSSAVAWYQQKPGKAPKLLIYSASSLYSGVPSRFSGSRSGTDFTLTISSLQPEDFATYYCQQYYFLITFGQGTKVEIK
Take B1: the EC50 (nM), TOPFLASH assay was 0.4 nM and the Maximal Signal (% Wnt3a maxima) (% Wnt3a maxima) stood at 42.

These data come from patent publication US20250270332A1.
